m = 2'-O-methyl; r = 2'-OH (RNA)
Columns and labels:
PCSK9 gene [1] = test: PCSK9 gRNA/SpCas9 editing in primary human hepatocytes (Tables 2, 4); type: cell-based; conditions: SpCas9 mRNA MS002 1:1 by weight; for Human Primary Hepatocyte Editing % 100: 100 ng/RNA/mL; for Human Primary Hepatocyte Editing % 500: 500 ng/RNA/mL; for Human Primary Hepatocyte Editing % 2500: 2500 ng/RNA/mL
Outline: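 Editing at the PCSK9 site quantified by NGS of PCR amplicons from genomic DNA. Input: SpCas9 mRNA with gRNA, 1:1 by weight, transfected into primary human hepatocytes at 2500, 500 or 100 ng RNA/mL (tracr-modified guides at 2500, 1250, 500, 250 ng/mL).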

PCSK9 gene [2] = test: PCSK9 gRNA/SpCas9 editing in primary cynomolgus hepatocytes (Tables 2, 22); type: cell-based, cynomolgus monkey; conditions: SpCas9 mRNA MS002 1:1 by weight; for Cyno Primary Hepatocyte Editing % 100: 100 ng/RNA/mL; for Cyno Primary Hepatocyte Editing % 500: 500 ng/RNA/mL; for Cyno Primary Hepatocyte Editing % 2500: 2500 ng/RNA/mL

Molecule | Human Primary Hepatocyte Editing % 100 (PCSK9 gene [1]) [%] | Human Primary Hepatocyte Editing % 500 (PCSK9 gene [1]) [%] | Human Primary Hepatocyte Editing % 2500 (PCSK9 gene [1]) [%] | Cyno Primary Hepatocyte Editing % 100 (PCSK9 gene [2]) [%] | Cyno Primary Hepatocyte Editing % 500 (PCSK9 gene [2]) [%] | Cyno Primary Hepatocyte Editing % 2500 (PCSK9 gene [2]) [%]
GA173: PCSK9 gRNA; protospacer CTTGGTGAGGTATCCCCGGC (SEQ ID NO: 167) (nucleic acid, sugars from the 5' end m3 r94 m3, linkages s3 o93 s3 (s phosphorothioate, o phosphodiester), T or U not given here) guide: CUUGGUGAGGUAUCCCCGGCGUUUUAGAGCUAGAAAUAGCAAGUUAAAAUAAGGCUAGUCCGUUAUCAACUUGAAAAAGUGGCACCGAGUCGGUGCUUUU | 0.69 | 3.94 | 23.38 | 2.06 | 8.70 | 35.03
GA167: PCSK9 gRNA; protospacer TCAGCTCCAGGCGGTCCTGG (SEQ ID NO: 161) (nucleic acid, sugars from the 5' end m3 r94 m3, linkages s3 o93 s3 (s phosphorothioate, o phosphodiester), T or U not given here) guide: UCAGCUCCAGGCGGUCCUGGGUUUUAGAGCUAGAAAUAGCAAGUUAAAAUAAGGCUAGUCCGUUAUCAACUUGAAAAAGUGGCACCGAGUCGGUGCUUUU | 8.2 | 25.87 | 53.71 | 11.98 | 35.98 | 66.07
GA175: PCSK9 gRNA; protospacer GAAGATGAGTGGCGACCTGC (SEQ ID NO: 169) (nucleic acid, sugars from the 5' end m3 r94 m3, linkages s3 o93 s3 (s phosphorothioate, o phosphodiester), T or U not given here) guide: GAAGAUGAGUGGCGACCUGCGUUUUAGAGCUAGAAAUAGCAAGUUAAAAUAAGGCUAGUCCGUUAUCAACUUGAAAAAGUGGCACCGAGUCGGUGCUUUU | 1.55 | 7.53 | 24.81 | 1.45 | 12.37 | 44.77
GA170: PCSK9 gRNA; protospacer CCAGGACCGCCTGGAGCTGA (SEQ ID NO: 164) (nucleic acid, sugars from the 5' end m3 r94 m3, linkages s3 o93 s3 (s phosphorothioate, o phosphodiester), T or U not given here) guide: CCAGGACCGCCUGGAGCUGAGUUUUAGAGCUAGAAAUAGCAAGUUAAAAUAAGGCUAGUCCGUUAUCAACUUGAAAAAGUGGCACCGAGUCGGUGCUUUU | 2.9 | 15.84 | 31.35 | 4.03 | 11.48 | 23.17
GA164: PCSK9 gRNA; protospacer GTCCTCGTCCTCCTGCGCAC (SEQ ID NO: 158) (nucleic acid, sugars from the 5' end m3 r94 m3, linkages s3 o93 s3 (s phosphorothioate, o phosphodiester), T or U not given here) guide: GUCCUCGUCCUCCUGCGCACGUUUUAGAGCUAGAAAUAGCAAGUUAAAAUAAGGCUAGUCCGUUAUCAACUUGAAAAAGUGGCACCGAGUCGGUGCUUUU | 2.68 | 11.12 | 25.77 | 2.75 | 13.96 | 34.89
GA163: PCSK9 gRNA; protospacer CGTCCTCGTCCTCCTGCGCA (SEQ ID NO: 157) (nucleic acid, sugars from the 5' end m3 r94 m3, linkages s3 o93 s3 (s phosphorothioate, o phosphodiester), T or U not given here) guide: CGUCCUCGUCCUCCUGCGCAGUUUUAGAGCUAGAAAUAGCAAGUUAAAAUAAGGCUAGUCCGUUAUCAACUUGAAAAAGUGGCACCGAGUCGGUGCUUUU | 2.31 | 9.2 | 29.32 | 5.99 | 17.69 | 49.50
GA169: PCSK9 gRNA; protospacer CGTGCGCAGGAGGACGAGGA (SEQ ID NO: 163) (nucleic acid, sugars from the 5' end m3 r94 m3, linkages s3 o93 s3 (s phosphorothioate, o phosphodiester), T or U not given here) guide: CGUGCGCAGGAGGACGAGGAGUUUUAGAGCUAGAAAUAGCAAGUUAAAAUAAGGCUAGUCCGUUAUCAACUUGAAAAAGUGGCACCGAGUCGGUGCUUUU | 5.49 | 15.15 | 46.65 | 3.45 | 18.28 | 42.38

Reference: patent US20250152746A1, “BASE EDITING OF ANGPTL3 AND METHODS OF USING SAME FOR TREATMENT OF DISEASE” (Verve Therapeutics, Inc., priority 2020, published 2025)
